Measurements published in IntAct's records for PubMed 26258637.

B1: Ras-related protein Rab-11A (Homo sapiens), P62491 (parent)
chain: MGTRDDEYDYLFKVVLIGDSGVGKSNLLSRFTRNEFNLESKSTIGVEFATRSIQVDGKTIKAQIWDTAGQERYRAITSAYYRGAVGALLVYDIAKHLTYENVERWLKELRDHADSNIVIMLVGNKSDLRHLRAVPTDEARAFAEKNGLSFIETSALDSTNVEAAFQTILTEIYRIVSQKQMSDRRENDMSPSNNVVPIHVPPTTENKPKVQCCQNI
partner: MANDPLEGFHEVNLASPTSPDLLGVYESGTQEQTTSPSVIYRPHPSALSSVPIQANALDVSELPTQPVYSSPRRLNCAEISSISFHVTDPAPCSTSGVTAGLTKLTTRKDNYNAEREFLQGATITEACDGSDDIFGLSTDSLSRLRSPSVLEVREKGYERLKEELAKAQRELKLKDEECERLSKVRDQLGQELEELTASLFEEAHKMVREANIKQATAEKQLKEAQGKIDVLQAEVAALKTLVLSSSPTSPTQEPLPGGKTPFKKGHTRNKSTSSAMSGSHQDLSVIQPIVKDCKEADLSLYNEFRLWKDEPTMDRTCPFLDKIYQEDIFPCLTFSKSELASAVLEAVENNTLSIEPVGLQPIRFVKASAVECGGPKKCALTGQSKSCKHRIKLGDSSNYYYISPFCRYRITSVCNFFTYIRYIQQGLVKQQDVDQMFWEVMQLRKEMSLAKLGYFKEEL
B2: Rab-3A-interacting protein (Homo sapiens), Q96QF0-2 (parent)
chain: B1 partner

Variants of: B1
Settings: with RAB3IP

Variant | effect of a mutation on the interaction
S25N | disrupting interaction strength

Variants of: B2
Settings: with rb11a_human RAB11A

Variant | effect of a mutation on the interaction
T419A;Y423A;L428A | decreasing interaction strength
